Experimental data taken from article PMC4955856 (Biochemistry, 2016).
Values joined by “and” are separate entries in the source; they are usually repeats but may differ in a detail not shown here. Equal values may be shown once. Read-outs that look alike come from different tables or passages of the source. Values belong to the molecule of their own block, whether it stands above or below them.

Key:
[1] = biological target: human UDP-glucose dehydrogenase Q458Bpa (human) (UniProt O60701); test: SEC
[2] = biological target: human UDP-glucose dehydrogenase Q458Bpa (human) (UniProt O60701); test: cross-linking
[3] = biological target: human UDP-glucose dehydrogenase Q458Bpa (human) (UniProt O60701); test: SEC; remark: listed apart in the source
[4] = biological target: human UDP-glucose dehydrogenase Y96Bpa (human) (UniProt O60701); test: SEC
[5] = biological target: human UDP-glucose dehydrogenase T325D obligate dimeric mutant (human) (UniProt O60701); test: SEC
SEC = biological target: the molecule itself; test: SEC

stoichiometry N [1]: 6
cross-linking efficiency (holoenzyme) [2]: > 60%
cross-linking efficiency (with UDP-xylose alone) [2]: 40%
total crosslinking efficiency (with NAD+ and UDP-glucose) [2]: 63%
stoichiometry N [3]: 6
Molecule: human UDP-glucose dehydrogenase Q458Bpa (from UniProt O60701 1-494) (enzyme)

stoichiometry N [4]: 2
Molecule: human UDP-glucose dehydrogenase Y96Bpa (from UniProt O60701 1-494) (enzyme)

stoichiometry N [5]: 2
Molecule: human UDP-glucose dehydrogenase T325D obligate dimeric mutant (from UniProt O60701 1-494) (enzyme)

B1: human UDP-glucose dehydrogenase, wild type (enzyme, UniProt O60701 1-494, looked up)
chain: MFEIKKICCIGAGYVGGPTCSVIAHMCPEIRVTVVDVNESRINAWNSPTLPIYEPGLKEVVESCRGKNLFFSTNIDDAIKEADLVFISVNTPTKTYGMGKGRAADLKYIEACARRIVQNSNGYKIVTEKSTVPVRAAESIRRIFDANTKPNLNLQVLSNPEFLAEGTAIKDLKNPDRVLIGGDETPEGQRAVQALCAVYEHWVPREKILTTNTWSSELSKLAANAFLAQRISSINSISALCEATGADVEEVATAIGMDQRIGNKFLKASVGFGGSCFQKDVLNLVYLCEALNLPEVARYWQQVIDMNDYQRRRFASRIIDSLFNTVTDKKIAILGFAFKKDTGDTRESSSIYISKYLMDEGAHLHIYDPKVPREQIVVDLSHPGVSEDDQVSRLVTISKDPYEACDGAHAVVICTEWDMFKELDYERIHKKMLKPAFIFDGRRVLDGLHNELQTIGFQIETIGKKVSSKRIPYAPSGEIPKFSLQDPPNKKPKV
stoichiometry N (SEC): 6 and 2
